The values below come from patent US20030134310A1.

Series [1] has as its target control mRNA-protein fusion molecule containing an optimized v-abl phosphorylation site (…), phosphorylated by v-abl. Description: immunoprecipitation of the mRNA-peptide fusion with 4G10 after the v-abl kinase reaction.
Series [2] concerns the target TC26 fragment of Shg (clone obtained in round five of the selection).
In series [3] the target is control peptides (r-series) containing the same amino acids as the test peptides, but in a scrambled order.

“4G10 anti-phosphotyrosine antibody (Upstate Biotechnology)” returned a percent of fusion molecules immunoprecipitated in series [1] of 3%.

B1: recombinant v-abl tyrosine kinase (New England Biolabs) (protein)
chain: YITPVNSLEKHSWYHGPVSRNAAEYLLSSGINGSFLVRESESSPGQRSISLRYEGRVYHYRINTASDGKLYVSSESRFNTLAELVHHHSTVADGLITTLHYPAPKRNKPTIYGVSPNYDKWEMERTDITMKHKLGGGQYGEVYEGVWKKYSLTVAVKTLKEDTMEVEEFLKEAAVMKEIKHPNLVQLLGVCTREPPFYIITEFMTYGNLLDYLRECNRQEVSAVVLLYMATQISSAMEYLEKKNFIHRDLAARNCLVGENHLVKVADFGLSRLMTGDTYTAHAGAKFPIKWTAPESLAYNKFSIKSDVWAFGVLLWEIATYGMSPYPGIDLSQVYELLEKDYRMERPEGCPEKVYELMRACWQWNPSDRPSFAEIHQAFETMFQESSISDEVEKELGKRG
On to B1, for which the “phosphorylation of mutagenized TC26 peptides with [γ-32P]ATP” value in series [2] is listed as “only the first tyrosine is a substrate for v-abl”. Moreover, in the series with full-length Shg protein, the phosphorylation in vitro entry is “the full-length Shg protein was phosphorylated by both v-abl and ZAP 70 in vitro”. In series [3], the “v-abl kinase activity on 5 µM substrate EAIYAAPFAKKK” value is recorded as “did not have a significant effect on v-abl kinase activity”.

B2: ZAP 70 kinase (protein)
chain: MPDPAAHLPFFYGSISRAEAEEHLKLAGMADGLFLLRQCLRSLGGYVLSLVHDVRFHHFPIERQLNGTYAIAGGKAHCGPAELCEFYSRDPDGLPCNLRKPCNRPSGLEPQPGVFDCLRDAMVRDYVRQTWKLEGEALEQAIISQAPQVEKLIATTAHERMPWYHSSLTREEAERKLYSGAQTDGKFLLRPRKEQGTYALSLIYGKTVYHYLISQDKAGKYCIPEGTKFDTLWQLVEYLKLKADGLIYCLKEACPNSSASNASGAAAPTLPAHPSTLTHPQRRIDTLNSDGYTPEPARITSPDKPRPMPMDTSVYESPYSDPEELKDKKLFLKRDNLLIADIELGCGNFGSVRQGVYRMRKKQIDVAIKVLKQGTEKADTEEMMREAQIMHQLDNPYIVRLIGVCQAEALMLVMEMAGGGPLHKFLVGKREEIPVSNVAELLHQVSMGMKYLEEKNFVHRDLAARNVLLVNRHYAKISDFGLSKALGADDSYYTARSAGKWPLKWYAPECINFRKFSSRSDVWSYGVTMWEALSYGQKPYKKMKGPEVMAFIEQGKRMECPPECPPELYALMSDCWIYKWEDRPDFLTVEQRMRACYYSLASKVEGPPGSTQKAEAACA
In the case of B2, the phosphorylation in vitro entry in the series with full-length Shg protein is “the full-length Shg protein was phosphorylated by both v-abl and ZAP 70 in vitro”.
